Fewer inactive variants are shown than the library holds.

The chains are these.
B1: TPR 5TU (parent)
chain: GGAUCUUCUCGAUCUAACAAAAAAGACAAAUCUGCCACAAAGCUUGAGAGCAUCUUCGGAUGCAGAGGCGGCAGCCUUCGGUGGCGCGAUAGCGCCAACGUUCUCAACUAUGACACGCAAAACGCGUGCUCCGUUGAAUGGAGUUUAUCAUG

In the series the parent is B1. The experiment in a line: polymerase ribozyme fitness, log enrichment relative to wild type (log ratio); higher = more active; in vitro selection for triplet polymerase activity. An outline of the steps: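 Mutant libraries of each subunit of a heterodimeric triplet polymerase ribozyme were built by PCR and transcribed. Each library went through one round of in vitro selection in triplicate: annealing with biotinylated primer, partner subunit and triplets, frozen incubation at −7 °C, gel excision of extended constructs, streptavidin-bead capture and RT-PCR. Input and output libraries were Illumina-sequenced; only genotypes with ≥10 input reads and ≥1 read per output were kept. Fitness is log2(genotype enrichment/wild-type enrichment), using inverse-variance-weighted replicate averages.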
Regarding G58C G94U C131U, the “polymerase ribozyme fitness (log ratio)” value was -0.209.

Consider G58A G92A U127C U135G G143U U151G, for which the “polymerase ribozyme fitness (log ratio)” value was at most -4.2.

Take G58A G83U A98U C103U: the “polymerase ribozyme fitness (log ratio)” value was -1.15.

G58A G80U U151G: the “polymerase ribozyme fitness (log ratio)” value was at most -4.2.

Consider G58U C75G G81A G92U A142G U144A, for which the “polymerase ribozyme fitness (log ratio)” value was at most -4.2. The same measure for U56C A120C C149U: -1.17; for C57U C75G G81A C87G A120G: at most -4.2. To U56C C57A belongs 0.0626. To C57U U111G belongs -4.17; to G58U G83U C118U A137U, at most -4.2; to C57G C123G, -0.87. In the case of U56A U109C G141U, the “polymerase ribozyme fitness (log ratio)” value was -2.56.

Turning to G58U U135G, the “polymerase ribozyme fitness (log ratio)” value was -3.76. To C57U G83C C87A G94U U146C belongs at most -4.2; to U56A U82G U139A, -4.02.

On to U56G C118U C123U, for which the “polymerase ribozyme fitness (log ratio)” value is -0.604. As to U56G G94A U139G, the “polymerase ribozyme fitness (log ratio)” value is -1.18.

Consider U56A G94A, for which the “polymerase ribozyme fitness (log ratio)” value is -1.28. The same measure for G58C G59A U102G A121U U127C: -3.85; for C57U U127A U151G: at most -4.2; for G58A G83A U109C A115U: at most -4.2. The same measure for G59C U90C C108G A119U A150U: at most -4.2; for C57A C131G: -3.13. To G58A G94A A106C belongs -0.37; to G58C C76A G86A A147U, -2.24; to G58A C63U C93A C105A, -4.05.

C57A G58C G84A A91G: the “polymerase ribozyme fitness (log ratio)” value was -3.28. With G58A G141C, the “polymerase ribozyme fitness (log ratio)” value is -0.279.

Turning to G58A G141U, the “polymerase ribozyme fitness (log ratio)” value worked out at 0.0168.

Take G58C A60G C63U G84A: the “polymerase ribozyme fitness (log ratio)” value is 0.439. As for C57G U82A A91C A115G C125A C149A, the “polymerase ribozyme fitness (log ratio)” value was at most -4.2. The same measure for G58C A107C U130G A137G A147G: at most -4.2; for G59A A89G: -1.1. To G59A U144C belongs 0.0653; to C57A G92C G133A, -4.05; to G58A G84A U104G, -0.568. To G59A G70C C85U A91U belongs at most -4.2. Consider C57U G59C C69G C96A, for which the “polymerase ribozyme fitness (log ratio)” value is -1.45. To C57A A66G C87A belongs at most -4.2.

For the variant U56A U82A C96A C114G, the “polymerase ribozyme fitness (log ratio)” value is -3.42.

Consider G59C A138C, for which the “polymerase ribozyme fitness (log ratio)” value was -3.7.

On to C57U C87G A107C C108U U135A U151C, for which the “polymerase ribozyme fitness (log ratio)” value was at most -4.2. The same measure for C57U G94U U127C C132U: -3.37; for C57U G92U: -0.682; for C57G G59U A60G C85G A89U A97U G128A U148A: at most -4.2.

Consider G59A U135A G141U, for which the “polymerase ribozyme fitness (log ratio)” value is -1.18. To G58A G94A U135G U144C belongs -1.98. In the case of C57A C129U C131U U134C, the “polymerase ribozyme fitness (log ratio)” value amounted to 1.02. The same measure for C57A G92C: -0.41; for C57A G92A: -3.13; for G59C G84U G124C: -2.97.

As for C57U A73G G74A C114G U135A U151G, the “polymerase ribozyme fitness (log ratio)” value is at most -4.2. To G59A A73U C75U C87A C95A G100U U127G A150C belongs at most -4.2. To G59A C85G G92U C95A C116A U127G belongs at most -4.2. The same measure for C57G A97U: -0.704; for C57U C87U C93A A107C: at most -4.2. Turning to G59A U61A C72A, the “polymerase ribozyme fitness (log ratio)” value is at most -4.2. The same measure for C57G C129G: -2.74; for C57A A73G: 0.866; for C57U A73C: -1.36.

Turning to C57U A73U, the “polymerase ribozyme fitness (log ratio)” value is -0.507. To G59A U90A A98G C103A belongs at most -4.2; to G59A A60G U77G U127C, at most -4.2; to G58C C93A, -2.61.

Take G58A G81A C123U U146G A147G: the “polymerase ribozyme fitness (log ratio)” value was -0.0286.

Regarding G59A A97G, the “polymerase ribozyme fitness (log ratio)” value is -0.633. To G59A G100A belongs at most -4.2; to G59A U134A, -2.02; to G59C C63A G126A, -0.167.

For C57A G94C, the “polymerase ribozyme fitness (log ratio)” value was 0.0611. The same measure for G58A A73U: -1.65; for G58U U61G: -1.81. To C57U U151G belongs -3.63; to G58A C76G C125U C132A G133C, at most -4.2; to C57G U148A, -3.25.

As for C57A C105U A120G, the “polymerase ribozyme fitness (log ratio)” value came to 0.486. To U56A G94A A97U belongs -1.41; to C57U C99G C105U, -1; to C57U A107C, -3.3. Regarding G59A A106C A113C C118G, the “polymerase ribozyme fitness (log ratio)” value was at most -4.2. To G59A U77C belongs -3.69. The same measure for C57A C85U U146C: -0.426. For U56A U61G U134G, the “polymerase ribozyme fitness (log ratio)” value was -3.93. To C57U G58C G86A U102A C116A belongs -2.47; to G59C A98U, 0.166.

With G58U G84A, the “polymerase ribozyme fitness (log ratio)” value is -0.866. As to G58C G124C, the “polymerase ribozyme fitness (log ratio)” value was -0.411.

Consider C57G C85A, for which the “polymerase ribozyme fitness (log ratio)” value was -3.21. To G58A C69A U82G A120U U134C belongs -1.34; to C57U G68A C75G C76G C87A A98U U145C, at most -4.2. The same measure for G59A U61A C69A A142C: -3.27; for G58C C87U C114U: -2.21. To C57A G92C C123A belongs -0.277; to G58C G88U C105A G141C U144G U146G, at most -4.2. As for U56A U148C, the “polymerase ribozyme fitness (log ratio)” value was -1.25. The same measure for C57U C95U U101C: -0.863; for C57U C116U U139C: at most -4.2; for C57U G94U C99A: -1.79. To G58C G59C belongs 0.523; to C57U C85A, -1.63; to C57U C85U, 0.073. The same measure for C57U A64U G92A A138U U145G A150C: at most -4.2; for G59A C85G: -2.1; for G59A C85A: -1.04.

As for C57G A60C G81C C103A U111G A119C, the “polymerase ribozyme fitness (log ratio)” value was at most -4.2. In the case of U56G U61G G128U, the “polymerase ribozyme fitness (log ratio)” value is -3.73.

In the case of G58U A66C U77G A91U C96G A97U, the “polymerase ribozyme fitness (log ratio)” value is at most -4.2.

Consider G58C C93U A110G, for which the “polymerase ribozyme fitness (log ratio)” value is -3.82. Turning to G58C A66G, the “polymerase ribozyme fitness (log ratio)” value was -3.76. To C57G A110U C123A belongs -4.11.

As for G58C U134G A150U, the “polymerase ribozyme fitness (log ratio)” value is -3.62. Take G59A C87U A137U: the “polymerase ribozyme fitness (log ratio)” value is at most -4.2. For G59C C95A C131G G136U, the “polymerase ribozyme fitness (log ratio)” value was at most -4.2. The same measure for C57G G59C: -0.566; for C57G G59A: -0.436.

G59A C123U G136C C149G: the “polymerase ribozyme fitness (log ratio)” value was -4.17. U56C G83U: the “polymerase ribozyme fitness (log ratio)” value is -0.525.

Regarding C57G G59A A73U G88C, the “polymerase ribozyme fitness (log ratio)” value was at most -4.2.

With U56A G143C, the “polymerase ribozyme fitness (log ratio)” value is -2.27.

In the case of U56G G83A C87G A120U U135C, the “polymerase ribozyme fitness (log ratio)” value is at most -4.2. With G59C G117A, the “polymerase ribozyme fitness (log ratio)” value was 1.39. The same measure for G59C A60C C99U A119C: at most -4.2; for G59A A89U C95A A97U C99A C125G: at most -4.2. As to U56A G94C A115C A121U U134A A147U, the “polymerase ribozyme fitness (log ratio)” value is -3.74. As to C57A G74A, the “polymerase ribozyme fitness (log ratio)” value is -2.66. To G58A G84A A142U G152A belongs -2.68; to C57G A73G U82A C96G U101C C116A, -3.9. The same measure for C57A U90A C103G: at most -4.2; for C57U C85A C96G C116U G143C U148A: at most -4.2. Take G59C C96U: the “polymerase ribozyme fitness (log ratio)” value worked out at 0.681. With U56C C87G, the “polymerase ribozyme fitness (log ratio)” value was at most -4.2. The same measure for G59C C85A: -0.943; for G59C C69A: -1.79. To G58A G62C U82G A106G G141C belongs -4.01; to C57A G70A U134C, -3.65; to C57U C87A, -4.12. In the case of C57G U61A G88A U104G, the “polymerase ribozyme fitness (log ratio)” value was -4.19. To C57U G62A C63U C87A G141A C149U belongs at most -4.2; to C57U A64U G92C C105U, at most -4.2.

As to G58C C75U C95U C99G U135C, the “polymerase ribozyme fitness (log ratio)” value is at most -4.2.

As for U56C, the “polymerase ribozyme fitness (log ratio)” value was -0.389. With U56G, the “polymerase ribozyme fitness (log ratio)” value was -0.573. The same measure for C57U C95A: -0.112; for G58C U82A: 0.644. Turning to G58U G141C A147U, the “polymerase ribozyme fitness (log ratio)” value is -0.128. The same measure for G59A G92A G128A: -4.02; for G58U U148A: -3.05. As to G58U C96U, the “polymerase ribozyme fitness (log ratio)” value was -0.236. The same measure for U56A U82G C96U A120G: -0.394; for G58C C96U G128U: -3.69. The same measure for C57U A121U C129U: -0.101. To U56G G62C A120C C132A U139G belongs at most -4.2; to C57G A142C, -0.312; to C57G C87U, -2.97.

Take C57A C114U A120G C129U: the “polymerase ribozyme fitness (log ratio)” value was at most -4.2. To C57A U78G G86C A89U C96U A120U C129G belongs at most -4.2. With U56A G128A, the “polymerase ribozyme fitness (log ratio)” value is -3.15. To U56G A64C belongs at most -4.2; to C57G C95U U102G, -2.74; to G58A A73G C85G A98C, -1.02. The same measure for G58C C93A G141C: -2.47.

For the variant G59C U82C, the “polymerase ribozyme fitness (log ratio)” value amounted to 0.0118. To G59A A73G C93U A106G U144G U146C belongs -0.726; to G59A G83C, -0.954.

On to C57U G58A U104G C105U, for which the “polymerase ribozyme fitness (log ratio)” value is -3.63.

Regarding C57A A91G C132G, the “polymerase ribozyme fitness (log ratio)” value is -4.05.

For the variant G59C C76A U78C C87A G94C C96U G100A U144A, the “polymerase ribozyme fitness (log ratio)” value is at most -4.2.

The record behind these values is the RNAGym collection of RNA variant scans (doi:10.1073/pnas.2313332121).
